Test results taken from paper doi:10.1101/2020.04.20.050518.

Target: 50S ribosomal subunit
Assay: cryo-EM 2D classification

50S ribosomal subunit (complex) was tested, and the stoichiometry N was 2.
